# Assay results published in patent publication US8173397B2, “Folded recombinant catalytic fragments of multidomain serine proteases, preparation and uses thereof” (TargetEx Kft., priority 2002, dated 2012).
# T1: C2 (Homo sapiens, UniProt P06681)
# T1 construct: from tissue
# T1 sequence (P06681 21-752): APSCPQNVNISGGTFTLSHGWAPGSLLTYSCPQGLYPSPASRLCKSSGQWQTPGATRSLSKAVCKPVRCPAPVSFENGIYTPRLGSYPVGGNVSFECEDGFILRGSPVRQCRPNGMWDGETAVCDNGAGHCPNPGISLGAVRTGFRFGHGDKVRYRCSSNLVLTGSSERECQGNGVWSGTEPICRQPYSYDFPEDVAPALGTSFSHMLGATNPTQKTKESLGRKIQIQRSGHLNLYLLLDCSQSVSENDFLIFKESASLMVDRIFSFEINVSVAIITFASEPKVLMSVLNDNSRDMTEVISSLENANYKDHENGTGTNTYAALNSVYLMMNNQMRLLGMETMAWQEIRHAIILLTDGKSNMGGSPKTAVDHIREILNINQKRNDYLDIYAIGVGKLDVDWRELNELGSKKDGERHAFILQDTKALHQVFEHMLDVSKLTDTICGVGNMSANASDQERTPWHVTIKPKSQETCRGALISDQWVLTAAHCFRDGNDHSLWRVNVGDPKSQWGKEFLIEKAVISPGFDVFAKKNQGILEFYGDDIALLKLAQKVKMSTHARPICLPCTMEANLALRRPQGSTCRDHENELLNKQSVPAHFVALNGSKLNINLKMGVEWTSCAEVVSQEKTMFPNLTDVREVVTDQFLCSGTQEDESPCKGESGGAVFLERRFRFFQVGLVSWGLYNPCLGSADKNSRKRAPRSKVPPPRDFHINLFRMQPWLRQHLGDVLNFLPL
# T2: C1-inhibitor (Homo sapiens, UniProt P05155)
# T2 construct: Purification of C1-inh and Alpha-2-Macroglobulin; from tissue
# T2 sequence (P05155 23-500): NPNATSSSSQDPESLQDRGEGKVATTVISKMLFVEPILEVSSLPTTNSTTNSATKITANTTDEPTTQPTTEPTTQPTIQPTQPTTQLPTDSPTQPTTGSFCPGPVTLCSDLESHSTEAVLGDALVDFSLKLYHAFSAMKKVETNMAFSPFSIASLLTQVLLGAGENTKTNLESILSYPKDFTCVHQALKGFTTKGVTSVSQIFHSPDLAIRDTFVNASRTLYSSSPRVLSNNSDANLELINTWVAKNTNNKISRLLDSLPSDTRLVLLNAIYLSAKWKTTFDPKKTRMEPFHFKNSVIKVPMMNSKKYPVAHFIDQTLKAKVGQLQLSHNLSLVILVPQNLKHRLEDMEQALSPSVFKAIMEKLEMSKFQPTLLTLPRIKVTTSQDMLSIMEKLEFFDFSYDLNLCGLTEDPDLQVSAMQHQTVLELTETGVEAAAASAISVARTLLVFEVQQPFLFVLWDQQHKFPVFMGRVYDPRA
# B1: MASP-2 CCP-SP: E. coli-expressed, refolded human MASP-2 CCP2-SP fragment, Ala-Ser-Met-Thr tag followed by Ile363, ending Phe686 (protein)
# chain 1: ASMTIVDCGPPDDLPSGRVEYITGPGVTTYKAVIQYSCEETFYTMKVNDGKYVCEADGFWTSSKGEKSLPVCEPVCGLSARTTGGR
# chain 2: IYGGQKAKPGDFPWQVLILGGTTAAGALLYDNWVLTAAHAVYEQKHDASALDIRMGTLKRLSPHYTQAWSEAVFIHEGYTHDAGFDNDIALIKLNNKVVINSNITPICLPRKEAESFMRTDDIGTASGWGLTQRGFLARNLMYVDIPIVDHQKCTAAYEKPPYPRGSVTANMLCAGLESGGKDSCRGDSGGALVFLDSETERWFVGGIVSWGSMNCGEAGQYGVYTKVINYIPWIENIISDF
# B2: MASP-2γB: E. coli-expressed, refolded human MASP-2 CCP1-CCP2-SP fragment, Thr287 to Phe686, Ala-Ser-Met tag; purified form starts with Ile291 (protein)
# chain 1: IHYTSTAQPCPYPMAPPNGHVSPVQAKYILKDSFSIFCETGYELLQGHLPLKSFTAVCQKDGSWDRPMPACSIVDCGPPDDLPSGRVEYITGPGVTTYKAVIQYSCEETFYTMKVNDGKYVCEADGFWTSSKGEKSLPVCEPVCGLSARTTGGR
# chain 2: B1 chain 2
# B3: MASP-2 SP: E. coli-expressed, refolded human MASP-2 serine protease domain, Ala-Ser-Met-Thr tag followed by Pro432, ending Phe686 (protein)
# chain 1: ASMTPVCGLSARTTGGR
# chain 2: B1 chain 2
# B4: CCP1-CCP2-SP: E. coli-expressed, refolded human C1r CCP1-CCP2-SP fragment, amino acids 309-705, N-terminal Ser-Thr-Gln-Ala (protein)
# chain 1: STQACPQPKTLDEFTIIQNLQPQYQFRDYFIATCKQGYQLIEGNQVLHSFTAVCQDDGTWHRAMPRCKIKDCGQPRNLPNGDFRYTTTMGVNTYKARIQYYCHEPYYKMQTRAGSRESEQGVYTCTAQGIWKNEQKGEKIPRCLPVCGKPVNPVEQRQR
# chain 2: IIGGQKAKMGNFPWQVFTNIHGRGGGALLGDRWILTAAHTLYPKEHEAQSNASLDVFLGHTNVEELMKLGNHPIRRVSVHPDYRQDESYNFEGDIALLELENSVTLGPNLLPICLPDNDTFYDLGLMGYVSGFGVMEEKIAHDLRFVRLPVANPQACENWLRGKNRMDVFSQNMFCAGHPSLKQDACQGDSGGVFAVRDPNTDRWVATGIVSWGIGCSRGYGFYTKVLNYVDWIKKEMEEED
# B5: CCP2-SP: E. coli-expressed, refolded human C1r CCP2-SP fragment, amino acids 376-705, N-terminal Ser-Thr-Gln-Ala (protein)
# chain 1: STQACGQPRNLPNGDFRYTTTMGVNTYKARIQYYCHEPYYKMQTRAGSRESEQGVYTCTAQGIWKNEQKGEKIPRCLPVCGKPVNPVEQRQR
# chain 2: B4 chain 2
# Key:
# [1] = target: T1, C2; assay: C2 cleavage by MASP fragments; assay type: biochemical; settings: 37° C., pH 7.4; averages of 2 to 4 experiments, standard errors
# Experimental: (§1) C2, C3, C3(NH3), C4 cleavage—Serial dilutions of MASP-1 and MASP-2 fragments ranging between concentrations of 1 μM and 10 pM were incubated at 37° C. in 20 mM HEPES, 140 mM NaCl, pH 7.4 with C2, C3, C3(NH3) or C4 at typical concentrations of 0.5-1 μM. The cleavage was followed by SDS-PAGE under reducing conditions. Desirable concentrations of the MASP fragments for further detailed kinetic analysis were chosen to be where half of the protein substrates were hydrolyzed during the first 20 minutes of incubation. The protein substrates C2, C3, C3(NH3) or C4 were then incubated with the selected concentrations of the MASP fragments at 37° C. in 20 mM HEPES, 140 mM NaCl, pH 7.4. Typically 11-13 samples were taken at varying time periods but always within 50 minutes from the beginning of the reaction. Cleavages rates were quantified by measuring the diminution of the cleaved chain visualized by Coomassie stained SDS-PAGs using a GEL DOC 1000 instrument and Molecular Analyst Software for densitometric calculations (Bio-Rad, Hercules, Calif., USA). The reactions were assumed to be of the Michaelis-Menten type. In the case of C3 and C3(NH3) cleavage a further reasonable assumption of KM>>[substrate] was made. The constants KM, kcat and KM/kcat were estimated by unbiased non-linear regression methods regressing the data on the following equations: t=([S0]−[S]+KMln([S0]/[S]))/(kcat[E0]) or in the case of C3 and C3(NH3) cleavage on [S]=[S0]exp(−t[E0]kcat/KM).
# [2] = system: C4; assay: C4 cleavage by MASP fragments; assay type: biochemical, human; settings: for C4 kcat: 37° C., pH 7.4, averages of 2 to 4 experiments, standard errors
# Experimental: as §1
# [3] = target: T2, C1-inhibitor; assay: Rate of SDS stable complex formation of 125I-labelled MASP fragments with C1-inhibitor; assay type: biochemical
# Experimental: To assess the rate of SDS stable complex formation between the MASP-1 and MASP-2 CCP1-CCP2-SP fragments and C1-inhibitor, the ^125I-labelled MASP fragments at concentrations ranging between 30-100 nM were incubated with 100-350 nM C1-inhibitor at 37° C. in 20 mM HEPES, 140 mM NaCl, pH 7.4 for 40 minutes. Typically 11-13 samples were taken at varying time periods. The reactions were stopped by reducing sample buffer containing 0.125 M Tris, 4.8% SDS, 8 M urea 20% glycerol, 720 mM mercaptoethanol, 0.02% bromophenol blue, pH6.8. The samples were further incubated at 37° C. for 30 minutes and run on reducing SDS-PAGE. Cleavages rates were visualized by means of autoradiography and the diminution of the reacted MASP chain was quantified using a GEL DOC 1000 instrument and Molecular Analyst Software for densitometric calculations (Bio-Rad, Hercules, Calif., USA). The kinetic constants were calculated assuming irreversible inhibition proceeded by reversible enzyme-inhibitor complex formation. Using steady-state approximation and neglecting the starting enzyme concentration compared to the starting inhibitor concentration ([I0]>>[E0]) the data was regressed on the following equation using non-linear regression methods: [E]=[E0]exp(−kobst); kobs=k2[I0]/(Ki+[I0]), where kobs is the observed pseudo-first order rate of reaction, k2 is the rate of irreversible enzyme-inhibitor complex formation and Ki is the inhibitory constant.
# [4] = target: T3, live C3 (Homo sapiens, UniProt P01024); assay: Cleavage of live C3 by MASP fragments, SDS-PAGE densitometry; assay type: biochemical; settings: control experiment
# T3 construct: was isolated from fresh human serum; from tissue; host or cells: fresh human serum
# Experimental: as §1, with “The constants KM, kcat and KM/kcat were estimated by unbiased non-linear regression methods regressing the data on the following equations: t=([S0]−[S]+KMln([S0]/[S]))/(kcat[E0]) or in the case of C3 and C3(NH3) cleavage on [S]=[S0]exp(−t[E0]kcat/KM).” left out
# [5] = target: T4, C3(NH3) (Homo sapiens, UniProt P01024); assay: Cleavage of dead C3, C3(NH3), by MASP fragments, SDS-PAGE densitometry; assay type: biochemical; settings: control experiment
# T4 construct: was isolated from fresh human serum; from tissue; host or cells: fresh human serum, then amidolysis with ammonium hydrogen carbonate
# Experimental: Amidolysis of C3 The intact thiol ester bond in ‘live’ C3 was cleaved using ammonium salt as the nucleophile to obtain ‘dead’ C3(NH3), according to Soames and Sim (1997) with modifications. C3 was incubated with a final concentration of 0.2 M ammonium hydrogen carbonate for 90 min at 37° C., making sure that the final pH of the reaction was above 8.0. At the end of the incubation, the reaction was collected with a brief centrifugation (5 min, 8000 g, RT) and dialyzed against 20 mM HEPES, 140 mM NaCl, pH 7.4.
# C2, C3, C3(NH3), C4 cleavage—Serial dilutions of MASP-1 and MASP-2 fragments ranging between concentrations of 1 μM and 10 pM were incubated at 37° C. in 20 mM HEPES, 140 mM NaCl, pH 7.4 with C2, C3, C3(NH3) or C4 at typical concentrations of 0.5-1 μM. The cleavage was followed by SDS-PAGE under reducing conditions. Desirable concentrations of the MASP fragments for further detailed kinetic analysis were chosen to be where half of the protein substrates were hydrolyzed during the first 20 minutes of incubation. […] Cleavages rates were quantified by measuring the diminution of the cleaved chain visualized by Coomassie stained SDS-PAGs using a GEL DOC 1000 instrument and Molecular Analyst Software for densitometric calculations (Bio-Rad, Hercules, Calif., USA). […]
# [6] = Differential scanning calorimetry of C1r fragments; assay type: physicochemical; settings: 20 mM Tris pH 8.3, 145 mM NaCl, 0.1 mg/ml, 1° C./min
# Experimental: Calorimetric measurements were performed on a VP-DSC (Microcal Inc, Northampton, Mass.) differential scanning calorimeter. Denaturation curves were recorded between 10 and 80° C. at a pressure of 2.5 atm, using a scanning rate of 1° C./min. The protein concentration was set to 0.1 mg/ml. Samples were dialyzed against 20 mM Tris pH 8.3 145 mM NaCl, and the dialysis buffer was used as a reference. Heat capacities were calculated as outlined by Privalov (16).
# T4 sequence (P01024 672-1663 limits assumed): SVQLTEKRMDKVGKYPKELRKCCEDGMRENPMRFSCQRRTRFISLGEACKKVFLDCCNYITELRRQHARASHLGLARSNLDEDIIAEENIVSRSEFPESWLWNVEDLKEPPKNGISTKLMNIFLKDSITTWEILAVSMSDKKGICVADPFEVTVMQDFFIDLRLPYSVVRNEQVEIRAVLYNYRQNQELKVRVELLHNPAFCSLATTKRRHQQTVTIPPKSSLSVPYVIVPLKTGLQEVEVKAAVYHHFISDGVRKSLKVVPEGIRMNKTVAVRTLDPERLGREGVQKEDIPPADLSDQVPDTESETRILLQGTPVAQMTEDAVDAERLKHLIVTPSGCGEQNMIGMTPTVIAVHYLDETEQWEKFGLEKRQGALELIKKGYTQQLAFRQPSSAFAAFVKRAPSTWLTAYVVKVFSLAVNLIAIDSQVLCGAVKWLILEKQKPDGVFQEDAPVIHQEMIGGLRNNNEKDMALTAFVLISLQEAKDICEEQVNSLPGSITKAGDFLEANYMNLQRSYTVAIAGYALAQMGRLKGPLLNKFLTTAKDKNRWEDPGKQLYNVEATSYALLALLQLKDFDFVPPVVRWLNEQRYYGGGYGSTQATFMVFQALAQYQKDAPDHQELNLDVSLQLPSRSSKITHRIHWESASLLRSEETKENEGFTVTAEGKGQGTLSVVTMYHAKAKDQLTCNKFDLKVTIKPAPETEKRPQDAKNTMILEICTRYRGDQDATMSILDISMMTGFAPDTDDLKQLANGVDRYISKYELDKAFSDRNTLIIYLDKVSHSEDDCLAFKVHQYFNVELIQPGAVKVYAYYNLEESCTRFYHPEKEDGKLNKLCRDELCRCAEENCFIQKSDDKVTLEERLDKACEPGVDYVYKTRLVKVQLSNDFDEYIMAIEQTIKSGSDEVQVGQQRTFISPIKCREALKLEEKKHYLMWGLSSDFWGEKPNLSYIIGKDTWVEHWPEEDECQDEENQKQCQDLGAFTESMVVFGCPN
# T4 sequence (P01024 23-667 partner limits assumed): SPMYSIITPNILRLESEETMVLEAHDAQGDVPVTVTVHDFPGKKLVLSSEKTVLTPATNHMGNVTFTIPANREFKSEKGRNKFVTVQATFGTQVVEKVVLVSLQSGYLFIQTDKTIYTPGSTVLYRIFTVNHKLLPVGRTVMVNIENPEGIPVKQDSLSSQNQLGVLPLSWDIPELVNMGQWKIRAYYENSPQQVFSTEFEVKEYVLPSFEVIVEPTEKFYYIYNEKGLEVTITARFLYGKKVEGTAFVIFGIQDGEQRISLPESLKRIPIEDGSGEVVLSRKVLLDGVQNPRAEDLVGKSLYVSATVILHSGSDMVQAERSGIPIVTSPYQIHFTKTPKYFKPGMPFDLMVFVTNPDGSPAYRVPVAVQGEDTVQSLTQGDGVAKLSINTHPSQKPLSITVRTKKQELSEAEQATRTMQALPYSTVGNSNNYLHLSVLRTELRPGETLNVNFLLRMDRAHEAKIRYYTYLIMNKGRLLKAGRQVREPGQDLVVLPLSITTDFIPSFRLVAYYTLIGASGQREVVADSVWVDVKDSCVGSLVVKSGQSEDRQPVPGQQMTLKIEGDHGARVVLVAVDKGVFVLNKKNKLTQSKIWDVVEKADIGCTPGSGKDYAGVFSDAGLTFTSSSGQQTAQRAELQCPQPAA
# T3 sequence (P01024 672-1663 limits assumed): as the sequence (P01024 672-1663 limits assumed) above
# T3 sequence (P01024 23-667 partner limits assumed): as the sequence (P01024 23-667 partner limits assumed) above
Molecule,C2 kcat [1] [s⁻¹],C4 kcat [2] [s⁻¹],DSC melting / unfolding transition temperature [6] [°C],also measured
B1,3.0 ± 2.2,2.0 ± 1.0,–,increase in the kcat/KM value of C4 cleavage by presence of the CCP2 domain ([2]; relative to MASP-2 SP domain alone): 44 fold
B2,1.9 ± 0.8,0.9 ± 0.4,–,"Ki values for the C1-inhibitor reaction, in words [3]: in the nanomolar range; k2, rate of irreversible enzyme-inhibitor complex formation with C1-inh ([3]; 37° C., pH 7.4): 0.008 s⁻¹; Ki ([3]; 37° C., pH 7.4, read-out: Ki, reaction with C1-inh): 8.8 nM; kobs, pseudo-first order rate of reaction with C1-inh ([3]; [C1-inh] = 350 nM, 37° C., pH 7.4): 0.0078 s⁻¹"
B3,3.9 ± 3.0,0.20 ± 0.06,–,–
B4,–,–,57.5,"cleavage of 'live' C3, in words [4]: no cleavages; cleavage of 'dead' C3, in words [5]: no cleavages"
B5,–,–,55.4,–
